Columns and labels:
[1] = system: MDA-MB-231 cell surface (target molecule unidentified, whole cells); assay: flow; conditions: apparent Kd on whole cells
[2] = system: MDA-MB-231 cell surface (target molecule unidentified, whole cells) (Homo sapiens?); assay: flow

Which Kd ([1]; n at 23 is Z) does the source give for “TCCCGAGTGACGCAGCCCCCGGNGGGATTGATCGGTGGACACGGTGGCTGAC [Z23-G30]” here?
Its Kd is 0.442 µM.

Which Kd ([2]; n at 30 is P, no binding at 250 nM) does the source give for “TCCCGAGTGACGCAGCCCCCGGTGGGATTNATCGGTGGACACGGTGGCTGAC [T23-P30]” here?
The Kd was > 1 µM.

Which Kd ([1]; AEGIS DNA, Z at 23 (6-amino-5-nitro-3-(2'-deoxyribosyl)-2(1H)-pyridone), P at 30 (2-amino-8-(2'-deoxyribosyl)-imidazo[1,2-a]-1,3,5-triazin-4(8H)one), SEQ 7/16, DPBS, 5 mM MgCl2, glucose, tRNA, BSA, 10% FBS, library background subtracted) does the source give for “TCCCGAGTGACGCAGCCCCCGGZGGGATTPATCGGTGGACACGGTGGCTGAC [ZAP-2012 (Z23-P30)]” here?
The Kd was 0.03 µM.

How did the Kd ([2]; n at 23 is Z, reduced binding at 250 nM, almost no binding in titration) turn out when “TCCCGAGTGACGCAGCCCCCGGNGGGATTAATCGGTGGACACGGTGGCTGAC [Z23-A30]” was run?
Its Kd is > 1 µM.

For “TCCCGAGTGACGCAGCCCCCGGCGGGATTNATCGGTGGACACGGTGGCTGAC [C23-P30]”, which Kd ([1]; n at 30 is P) is on record?
Its Kd is 0.16 µM.

How did the Kd ([2]; no binding at 250 nM) turn out when “TCCCGAGTGACGCAGCCCCCGGTGGGATTGATCGGTGGACACGGTGGCTGAC [T23-G30]” was run?
Its Kd is > 1 µM.

For “TCCCGAGTGACGCAGCCCCCGGCGGGATTAATCGGTGGACACGGTGGCTGAC [C23-A30]”, which Kd ([2]; no binding at 250 nM) is on record?
Its Kd is > 1 µM.

For “TCCCGAGTGACGCAGCCCCCGGCGGGATTGATCGGTGGACACGGTGGCTGAC [C23-G30]”, which Kd ([2]; no binding at 250 nM) is on record?
Its Kd is > 1 µM.

With “TCCCGAGTGACGCAGCCCCCGGTGGGATTAATCGGTGGACACGGTGGCTGAC [T23-A30]” as the sequence, how does the Kd ([2]; no binding at 250 nM) read?
Its Kd is > 1 µM.

Reference: US9725713
